Target: T1, TTP-2D (tristetraprolin, both CCCH zinc fingers) (UniProt P22893)
T1 sequence: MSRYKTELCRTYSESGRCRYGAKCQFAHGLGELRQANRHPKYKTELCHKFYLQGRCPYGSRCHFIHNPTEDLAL
Assay: fluorescence anisotropy

UUUAUUUAUUU (ssRNA) [UUUAUUUAUUU-F (AU-rich element)]: binds.
